We go through 6 molecules from publication PMC5357909, “Structural and functional studies of a noncanonical Dicer from Entamoeba histolytica” (Scientific Reports, 2017).

The target of data set [1] is T1, EhRNaseIII194 (Entamoeba histolytica, UniProt C4LU64 2-194).
T1 sequence: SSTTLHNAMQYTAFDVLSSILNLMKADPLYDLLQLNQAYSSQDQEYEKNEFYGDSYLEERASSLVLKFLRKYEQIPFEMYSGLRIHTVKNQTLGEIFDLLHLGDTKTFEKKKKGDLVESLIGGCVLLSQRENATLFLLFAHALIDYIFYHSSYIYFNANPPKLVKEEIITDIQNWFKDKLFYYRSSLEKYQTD
As to the kind of experiment: EMSA; 5 mM Mg2+; up to 1e-3 M; EMSA (1x): 30 mM Tris-HCl pH 7.5, 30 mM NaCl, 5 mM MgCl2, 1 mM DTT, 0.1 mM EDTA, 5% glycerol; room temperature 10 min then ice 20 min; 6% native PAGE, 0.5x TBE. The settings on record: protein: recombinant; tags: His-Sumo removed by Ulp1; chain copies: 2; blunt, 25 bp. (Mobility shift assays separate free from complexed probe on a gel.)

The target of data set [2] is T2, EhRNaseIII229 (Entamoeba histolytica, UniProt C4LU64 2-229).
T2 sequence: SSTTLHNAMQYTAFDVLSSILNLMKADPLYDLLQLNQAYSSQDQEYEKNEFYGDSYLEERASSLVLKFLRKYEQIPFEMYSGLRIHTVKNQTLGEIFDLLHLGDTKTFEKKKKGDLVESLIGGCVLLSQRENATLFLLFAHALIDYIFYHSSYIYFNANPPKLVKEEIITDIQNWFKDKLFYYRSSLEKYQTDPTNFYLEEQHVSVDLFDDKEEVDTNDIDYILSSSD
As to the kind of experiment: EMSA; 5 mM Mg2+; EMSA (1x): 30 mM Tris-HCl pH 7.5, 30 mM NaCl, 5 mM MgCl2, 1 mM DTT, 0.1 mM EDTA, 5% glycerol; room temperature 10 min then ice 20 min; 6% native PAGE, 0.5x TBE. The following applies: protein: recombinant; tags: His-Sumo removed by Ulp1; chain copies: 2; blunt, 25 bp.

Data set [3] addresses T3, EhRNaseIII256 (full-length EhRNaseIII) (Entamoeba histolytica, UniProt C4LU64 2-256).
T3 sequence: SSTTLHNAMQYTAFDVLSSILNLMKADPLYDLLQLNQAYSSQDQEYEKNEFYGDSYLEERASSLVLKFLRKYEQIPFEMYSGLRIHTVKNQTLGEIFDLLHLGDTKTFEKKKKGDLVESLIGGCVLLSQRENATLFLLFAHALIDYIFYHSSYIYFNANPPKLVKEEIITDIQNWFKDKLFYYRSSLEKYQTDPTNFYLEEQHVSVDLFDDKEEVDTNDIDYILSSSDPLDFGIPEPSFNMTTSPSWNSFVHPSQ
The data set is described as above. The following applies: protein: recombinant, tags: His-Sumo removed by Ulp1, chain copies: 2, blunt.

Data set [4] deals with the molecule itself. As to the kind of experiment: crystal structure; SeMet-EhRNaseIII194, hanging drop, 16 °C, 1.26 M (NH4)2SO4, 0.1 M Hepes pH 7.8; P212121, SAD phasing, 2.10 Å.
Data set [5] deals with the molecule itself. As to the kind of experiment: crystal structure; EhRNaseIII229, sitting drop, 16 °C, 1.6 M (NH4)2SO4, 0.02 M MgCl2, 0.05 M Tris-HCl pH 7.5; apo (1.90 Å) and soaked with 10 mM MnCl2 (2.05 Å); P212121, molecular replacement.
Data set [6] addresses T2, EhRNaseIII229. As to the kind of experiment: EMSA; 5 mM Mg2+; almost complete shift at 3e-4 M; EMSA (1x): 30 mM Tris-HCl pH 7.5, 30 mM NaCl, 5 mM MgCl2, 1 mM DTT, 0.1 mM EDTA, 5% glycerol; room temperature 10 min then ice 20 min; 6% native PAGE, 0.5x TBE. The following applies: protein: recombinant; tags: His-Sumo removed by Ulp1; chain copies: 2; blunt, 100 bp.
Data set [7] deals with T1, EhRNaseIII194. As to the kind of experiment: EMSA; 5 mM Mg2+; shift at 5e-5 M; EMSA (1x): 30 mM Tris-HCl pH 7.5, 30 mM NaCl, 5 mM MgCl2, 1 mM DTT, 0.1 mM EDTA, 5% glycerol; room temperature 10 min then ice 20 min; 6% native PAGE, 0.5x TBE. The settings on record: protein: recombinant; tags: His-Sumo removed by Ulp1; chain copies: 2; blunt, 100 bp.
Data set [8] deals with T1, EhRNaseIII194. As to the kind of experiment: EMSA; 5 mM Mg2+; binds at 1e-4 M; EMSA (1x): 30 mM Tris-HCl pH 7.5, 30 mM NaCl, 5 mM MgCl2, 1 mM DTT, 0.1 mM EDTA, 5% glycerol; room temperature 10 min then ice 20 min; 6% native PAGE, 0.5x TBE. The following applies: protein: recombinant; tags: His-Sumo removed by Ulp1; chain copies: 2; blunt, 70 bp.
Data set [9] has as its target T2, EhRNaseIII229. As to the kind of experiment: EMSA; 5 mM Mg2+; up to 1e-3 M; EMSA (1x): 30 mM Tris-HCl pH 7.5, 30 mM NaCl, 5 mM MgCl2, 1 mM DTT, 0.1 mM EDTA, 5% glycerol; room temperature 10 min then ice 20 min; 6% native PAGE, 0.5x TBE. The settings on record: protein: recombinant, tags: His-Sumo removed by Ulp1, chain copies: 2, blunt.
Data set [10] concerns the target T3, EhRNaseIII256 (full-length EhRNaseIII). The description is as above. The settings on record: protein: recombinant, tags: His-Sumo removed by Ulp1, chain copies: 2, blunt.

B1: RNA25 (dsRNA)
RNA 1: GGGAGAAACGCGGCCUCUUUCUCCC
RNA 2: GGGAGAAAGAGGCCGCGUUUCUCCC
B1: the binding result in data set [1], in data set [2] and in data set [3] (25 bp) was “no binding” in each case.

B2: SeMet-EhRNaseIII194 (selenomethionine-labeled EhRNaseIII, aa 1-194) (domain or fragment, Entamoeba histolytica, UniProt C4LU64 1-194, looked up)
chain: MSSTTLHNAMQYTAFDVLSSILNLMKADPLYDLLQLNQAYSSQDQEYEKNEFYGDSYLEERASSLVLKFLRKYEQIPFEMYSGLRIHTVKNQTLGEIFDLLHLGDTKTFEKKKKGDLVESLIGGCVLLSQRENATLFLLFAHALIDYIFYHSSYIYFNANPPKLVKEEIITDIQNWFKDKLFYYRSSLEKYQTD
modifications: selenomethionine substituted (Se-Met) for methionine
notes: EhRNaseIII, the only RNaseIII protein of Entamoeba histolytica (256 aa), aa 1-194 (CTR truncated); Cloned from E. histolytica cDNA into pET28-Sumo; also called EhRNase194; SeMet-RNaseIII194; source: E. coli BL21(DE3) in M9 medium with Se-Met, purified (HisTrap, Ulp1 digestion, HisTrap, HiTrap Q, Superdex 75); not shown: His-Sumo, N-terminal, cleaved
The stoichiometry N is a count of units in the complex or per binding partner. With B2, the “stoichiometry N” value in data set [4] stood at 2.

B3: EhRNaseIII229 (EhRNaseIII aa 1-229) (domain or fragment, Entamoeba histolytica, UniProt C4LU64 1-229, looked up)
chain: MSSTTLHNAMQYTAFDVLSSILNLMKADPLYDLLQLNQAYSSQDQEYEKNEFYGDSYLEERASSLVLKFLRKYEQIPFEMYSGLRIHTVKNQTLGEIFDLLHLGDTKTFEKKKKGDLVESLIGGCVLLSQRENATLFLLFAHALIDYIFYHSSYIYFNANPPKLVKEEIITDIQNWFKDKLFYYRSSLEKYQTDPTNFYLEEQHVSVDLFDDKEEVDTNDIDYILSSSD
notes: EhRNaseIII, the only RNaseIII protein of Entamoeba histolytica (256 aa), aa 1-229 (CTR truncated); Cloned from E. histolytica cDNA into pET28-Sumo; Residues after about 195 were disordered in the crystal; also called EhRNase229; source: E. coli BL21(DE3), purified (HisTrap, Ulp1 digestion, HisTrap, HiTrap Q, Superdex 75); not shown: His-Sumo, N-terminal, cleaved
For B3, the “stoichiometry N” value in [5] amounted to 2.

B4: RNA100 (dsRNA)
RNA 1: GGGAGAAACGCGGCCUCUUCUUAUUUAUGGCGACAUGUUGUGCCACAUAUUGAGCCAGUAGCGCGGUGUAUUAUACCAGACCUUAUUGGUAUGGUCUCCC
RNA 2: GGGAGACCAUACCAAUAAGGUCUGGUAUAAUACACCGCGCUACUGGCUCAAUAUGUGGCACAACAUGUCGCCAUAAAUAAGAAGAGGCCGCGUUUCUCCC
By Kd is commonly meant a measure of binding affinity in units of concentration. With B4, the binding signal in data set [6] was > 2 fold affinity vs EhRNaseIII256 (at least); in data set [7], ~6 fold affinity vs EhRNaseIII256 (2-fold vs EhRNaseIII229). Besides, the Kd in [3] (100 bp) was roughly 600 µM.

B5: RNA70 (dsRNA)
RNA 1: GGGAGAAACGCGGCCUCUUCUUAUUUAUGGCGACAUGUUGUGCCACAUAUUGAGCCAGUAGCGCUCUCCC
RNA 2: GGGAGAGCGCUACUGGCUCAAUAUGUGGCACAACAUGUCGCCAUAAAUAAGAAGAGGCCGCGUUUCUCCC
For B5, the binding result is listed as “binds” in [8], “no binding” in data set [9] (70 bp) and “no binding” in data set [10] (70 bp).

B6: RNA50 (dsRNA)
RNA 1: GGGAGAAACGCGGCCUCUUCUUAUUUAUGGCGACAUGUUGUGCCUCUCCC
RNA 2: GGGAGAGGCACAACAUGUCGCCAUAAAUAAGAAGAGGCCGCGUUUCUCCC
B6: the binding result in data set [9] (50 bp) and in data set [10] (50 bp) was “no binding” throughout.
